94 variants from the supplement of paper PMC10567573 can be followed below.

B1: MMP1 (parent)
chain: YTPDLPRADVDHAIEKAFQLWSNV
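Also: lentivirally expressed fusions sorted by FACS into six bins by GFP to DsRed ratio, PSI derived from sequencing read proportions per bin multiplied by bin number.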

In this series the parent is B1. The series can be described thus: protein stability index of a GFP-peptide fusion (GPS, HEK-293T) (PSI 1-6); higher = more stable. Particulars: c terminus: a fixed tail appended.
For YTPDLPRADVDHAIEVAFQLWSNV, the protein stability index came to 2.28. For YTPDLPRADVDHAIEKAFQLASNV, the protein stability index was found to be 3.05. In the case of YTPDLPRADVDHAIEKAFQLYSNV, the protein stability index came to 2.5. In the case of YTPDLPRADVDHAIEKAFQLSSNV, the protein stability index worked out at 3.25. Turning to YTPDLPRADVDHAIEKAFQLVSNV, the protein stability index amounted to 3.18. On to YTPDLPRADVDHAIEKAFQLRSNV, for which the protein stability index amounted to 3.25. For YTPDLPRADVDHAIEKAFQLQSNV, the protein stability index came out at 2.88.

As to YTPDLPRADVDHAIEKAFQLCSNV, the protein stability index was 3.03. With YTPDLPRADVDHAIEKAFQLNSNV, the protein stability index is 3.36. YTPDLPRADVDHAIEKAFQLPSNV: the protein stability index was 3.4. The same measure for YTPDLPRADVDHAIEKAFQLLSNV: 3.56; for YTPDLPRADVDHAIEKAFQLHSNV: 3.42. As for YTPDLPRADVDHAIEKAFQLESNV, the protein stability index is 3.74.

Consider YTPDLPRADVDHAIEKAFQLFSNV, for which the protein stability index was 2.13. The result for YTPDLPRADVDHAIEKAFQLDSNV reads 3.88.

For the variant YTPDLPRADVDHAIEKAFQLMSNV, the protein stability index was determined as 3.03. For the variant YTPDLPRADVDHAIEKAFQLKSNV, the protein stability index was 3.4. YTPDLPRADVDHAIEKAFQLISNV: the protein stability index amounted to 2.67. As for YTPDLPRADVDHAIEKAFQLTSNV, the protein stability index was 3.42.

On to YTPDLPRADVDHAIEKAFQLGSNV, for which the protein stability index turned out to be 3.01. YTPDLPRADVDHAIEKATQLWSNV: the protein stability index turned out to be 2.13. With YTPDLPRADVDHAIEKARQLWSNV, the protein stability index amounted to 1.66. As to YTPDLPRADVDHAIEKAAQLWSNV, the protein stability index stood at 1.83.

With YTPDLPRADVDHAIEKAHQLWSNV, the protein stability index is 3.17. The result for YTPDLPRADVDHAIEKAPQLWSNV reads 1.99; that for YTPDLPRADVDHAIEKAKQLWSNV, 2.22; that for YTPDLPRADVDHAIEKAGQLWSNV, 2.23. Consider YTPDLPRADVDHAIEKAQQLWSNV, for which the protein stability index came out at 1.73.

Regarding YTPDLPRADVDHAIEKASQLWSNV, the protein stability index was found to be 1.67. Take YTPDLPRADVDHAIEKAMQLWSNV: the protein stability index came out at 2.04. For YTPDLPRADVDHAIEKACQLWSNV, the protein stability index was determined as 1.69.

Regarding YTPDLPRADVDHAIEKAVQLWSNV, the protein stability index came out at 2.04. The result for YTPDLPRADVDHAIEKAYQLWSNV reads 2.11. Take YTPDLPRADVDHAIEKANQLWSNV: the protein stability index is 1.94. As for YTPDLPRADVDHAIEKAWQLWSNV, the protein stability index was found to be 1.48. Take YTPDLPRADVDHAIEKAIQLWSNV: the protein stability index came to 2.41. Take YTPDLPRADVDHAIEKAEQLWSNV: the protein stability index stood at 2.29. With YTPDLPRADVDHAIEKALQLWSNV, the protein stability index amounted to 1.46.

For YTPDLPRADVDHAIEKADQLWSNV, the protein stability index amounted to 2.18.

As for YTPDLPRADVDHAIKKAFQLWSNV, the protein stability index was 1.32.

For YTPDLPRADVDHAINKAFQLWSNV, the protein stability index turned out to be 1.97. In the case of YTPDLPRADVDHAISKAFQLWSNV, the protein stability index was found to be 2.19. As to YTPDLPRADVDHAIDKAFQLWSNV, the protein stability index is 1.58. As to YTPDLPRADVDHAIGKAFQLWSNV, the protein stability index amounted to 2.54. Take YTPDLPRADVDHAIVKAFQLWSNV: the protein stability index amounted to 1.39. The same measure for YTPDLPRADVDHAIRKAFQLWSNV: 2.73; for YTPDLPRADVDHAIIKAFQLWSNV: 2.53; for YTPDLPRADVDHAIPKAFQLWSNV: 1.93. Consider YTPDLPRADVDHAIHKAFQLWSNV, for which the protein stability index was 2.09. As for YTPDLPRADVDHAIWKAFQLWSNV, the protein stability index turned out to be 1.83. In the case of YTPDLPRADVDHAIMKAFQLWSNV, the protein stability index came to 2.46. For YTPDLPRADVDHAICKAFQLWSNV, the protein stability index turned out to be 2.24.

In the case of YTPDLPRADVDHAIQKAFQLWSNV, the protein stability index was 1.46. Regarding YTPDLPRADVDHAIFKAFQLWSNV, the protein stability index was 2.56. For the variant YTPDLPRADVDHAIYKAFQLWSNV, the protein stability index is 2.07. Consider YTPDLPRADVDHAILKAFQLWSNV, for which the protein stability index is 2.65. YTPDLPRADVDHAITKAFQLWSNV: the protein stability index came out at 2.46.

For YTPDLPRADVDHAIAKAFQLWSNV, the protein stability index came out at 1.46. Regarding YTPDLPRADVDHAIEKAFQLWENV, the protein stability index stood at 2.75. As to YTPDLPRADVDHAIEKAFQLWCNV, the protein stability index was found to be 2.02. Consider YTPDLPRADVDHAIEKAFQLWINV, for which the protein stability index amounted to 2.04. Take YTPDLPRADVDHAIEKAFQLWHNV: the protein stability index is 1.43. The same measure for YTPDLPRADVDHAIEKAFQLWRNV: 1.72. In the case of YTPDLPRADVDHAIEKAFQLWMNV, the protein stability index is 1.69.

For YTPDLPRADVDHAIEKAFQLWGNV, the protein stability index worked out at 1.81. Turning to YTPDLPRADVDHAIEKAFQLWQNV, the protein stability index turned out to be 1.98. With YTPDLPRADVDHAIEKAFQLWVNV, the protein stability index was 1.44. Take YTPDLPRADVDHAIEKAFQLWFNV: the protein stability index came to 1.82. On to YTPDLPRADVDHAIEKAFQLWPNV, for which the protein stability index amounted to 1.85. In the case of YTPDLPRADVDHAIEKAFQLWANV, the protein stability index is 1.78. The result for YTPDLPRADVDHAIEKAFQLWDNV reads 2.59; that for YTPDLPRADVDHAIEKAFQLWLNV, 2.19. For YTPDLPRADVDHAIEKAFQLWTNV, the protein stability index came out at 1.59. In the case of YTPDLPRADVDHAIEKAFQLWKNV, the protein stability index was determined as 2.03.

On to YTPDLPRADVDHAIEKAFQLWNNV, for which the protein stability index worked out at 1.85.

Turning to YTPDLPRADVDHAGEKAFQLWSNV, the protein stability index stood at 2.25. Turning to YTPDLPRADVDHAREKAFQLWSNV, the protein stability index came to 2.31.

YTPDLPRADVDHAWEKAFQLWSNV: the protein stability index was determined as 1.46. Turning to YTPDLPRADVDHANEKAFQLWSNV, the protein stability index is 1.88.

For the variant YTPDLPRADVDHALEKAFQLWSNV, the protein stability index was 1.39. As to YTPDLPRADVDHAPEKAFQLWSNV, the protein stability index stood at 2.14. Regarding YTPDLPRADVDHACEKAFQLWSNV, the protein stability index is 2.1. On to YTPDLPRADVDHADEKAFQLWSNV, for which the protein stability index worked out at 1.81. Turning to YTPDLPRADVDHAVEKAFQLWSNV, the protein stability index worked out at 2.08.

Consider YTPDLPRADVDHAFEKAFQLWSNV, for which the protein stability index turned out to be 2.14. For YTPDLPRADVDHAKEKAFQLWSNV, the protein stability index amounted to 2.14. YTPDLPRADVDHAQEKAFQLWSNV: the protein stability index came out at 2.3. On to YTPDLPRADVDHAHEKAFQLWSNV, for which the protein stability index came out at 1.62. As for YTPDLPRADVDHASEKAFQLWSNV, the protein stability index came to 1.51.

With YTPDLPRADVDHAMEKAFQLWSNV, the protein stability index amounted to 1.7. For the variant YTPDLPRADVDHAYEKAFQLWSNV, the protein stability index worked out at 2.17. In the case of YTPDLPRADVDHATEKAFQLWSNV, the protein stability index was found to be 1.39. The same measure for YTPDLPRADVDHAEEKAFQLWSNV: 1.36; for YTPDLPRADVDHAAEKAFQLWSNV: 1.68.
